Test: soluble fraction after stress (log2 fold change); higher = more stays soluble; pooled small domains, quantitative proteomics
Conditions: stress: pH 4
How it was run: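 How much of each domain stays soluble after acid stress, expressed as a fold change, is used to gauge aggregation propensity. Pooled custom libraries of small domains underwent pH 4 stress before high-throughput quantitative proteomics. A higher log2 value means more of the domain stayed soluble.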

HMVWINIRDLSDLFSKSGKSENSKNILDLQTLKIEKLLGGGQINTPYTIKVKQATPSAIEKVKQAGGEVIL
soluble fraction (log2): -0.00604

HMVWPETEAIVTEDFIGKKRSEVQQEGVIFEFFGEGDMVIDQLPRGGVTLNESGRVWIYLGEDTF
soluble fraction (log2): -1.4

HMVYFAKNIRHLRRLRGMSQELLAAELDITRARLGAYEESRSEPPLHLLIKISEFFKLPVDIIVKNDLTKS
soluble fraction (log2): -0.961

HMVYFDDEELDRFAGRAADSYTSDETDEFRDVMLTLLPADVMPWTQSIEMRGILLPEQLRDELLML
soluble fraction (log2): -1.26

HMVYVPTKAEVSQQFQDASKARFDERYAIVELADGRRTMAPLAFLTKADHAWLKQLASTSPLPKGK
soluble fraction (log2): 0.0133

HMWAQSVSLHGLLGRQALLIVDGKPPRAVAPGQTHLGVTVLSTDEDRAVVALAGGQRLTLRVGESPVSVG
soluble fraction (log2): 0.264

HMWMEKEELLWNDIIRGGVERGELREDTDIQEAAALFRQVFIGLAYQMSFSDGLDVGILRKRFHHIYGLLT
soluble fraction (log2): -2.16

HMWNKGETKIPTQAQNELIKRRQAGATWTSLSEWLKATYGIDIHRTNIQRWYDKEVYLDQEN
soluble fraction (log2): -0.556

HMWNPVLVVRGDFPKDLATTLLKMIFAQKEALNPHILFQNLLRTDNITFRESYPYHSASKTMFRF
soluble fraction (log2): -0.421

HMWPQIAGFADRFGLSDTERRIVTLMSHGRSRKIIASTLGYSQNTIRNYTRNIYAKAGVHSKQELLDLLDP
soluble fraction (log2): -0.117

HMWPTPRTWSALMNELNLYKENHGYANIVDIPSEKIRRMADGIIGEDMAVRYVAFLQSHASS
soluble fraction (log2): -0.614

HMWQKGEPAITGLKRISKPGLRIYSKNDELPIVYGNRGIAVISTNKGVMTGIEAKRSGVGGEVLFYV
soluble fraction (log2): 0.104

HMWSAREQVVNSLREAILTSELKAGERLVLSDLSARLGVSVTPIREALQSLEREGLVQLMPHQEAVVV
soluble fraction (log2): -0.409

HMWVETITTKAGITKYKFQERYTDTYSGKTKRVSVTYTSNSRQAYKLAQAELQKKIDLATNTD
soluble fraction (log2): 0.112

HMYAHLGKNLEVVINKALAQEDPEKKAGFAHHIAYYMKLAYSNWHKELVHDDAIRSELDTITGGELEFSN
soluble fraction (log2): -0.0696

HMYAHTPEMEAMNELGLEPPVTLDEIKKTYKTLVKKYHPDHNKEDPEAEEKLKKVNMAYTILKVAYTEFEK
soluble fraction (log2): 0.0101

HMYALGIPVSQYRRTTQVLGHESSYPIAYEDEKQDDDFYLFKFPNIDEYDFKKIVILLKQNGITT
soluble fraction (log2): -0.338

HMYDNTVTKYVNSLSVYVRKGPSTSDEIVTSLIKDTDVTVVGENGEWYKIKYKEFEGYIYKNLLSDNKT
soluble fraction (log2): -0.125

HMYDRIKLLKLREKRGLTQYELAEKAGISVVTLNKIETSDMAKPFASTLKKIALALGVGIEELS
soluble fraction (log2): 0.22

HMYEDGGAFLKAEREKYGLTLTDIYEHTHIPVRKLKAYEMHEEEMPDRTRALLELYFDQVAYEYES
soluble fraction (log2): -0.339

HMYEDIDSAYRILEINSTVSNQEIKNAYRRMAKKYHPDKVAHLGVEHQKGAEEKFKKVQEAYILIKKRRG
soluble fraction (log2): -0.146

HMYEENFSKIKNDISTIFKRHKISFTNNFISHLSSVFNTDSLTNKMELEKLDSFLINNKKVTENELLKFII
soluble fraction (log2): 0.0436

HMYEINEIIRERRLKKGLTQAQVAKYLGVSAPAVNKWEKGTTYPDLVLLPALARLLDTDLTTLLSF
soluble fraction (log2): -1.02

HMYEVVPNMRGLTYNQATAALAAAGLKVELSDSIYDEHTQPGTVLDQSPRPNTKVKPNRVVYLTVNAF
soluble fraction (log2): -0.0904

HMYFDDEELDTYKGRASNAYSPDETAQFEEVMTTMRPDEVAAWLRSLQLRGINLPDELKDEAIMLVE
soluble fraction (log2): -1.22

HMYFGNSLFQARKRSGLSQEGVAEKLGVSRQTVSKWETGETVPDIYQSKKMARLYGVSLDEL
soluble fraction (log2): 0.217

HMYFNTADLKADSIHYGSTEQSVIKILGEPEYRETFVDNNVSYELFSYKGNLLLSFVENSLVSL
soluble fraction (log2): -0.0269

HMYGTERILAQLANYGIPNKLAFQIQDFYKEETLQIVEQQPYRLVEDIQGMGFKIADQLAEELGI
soluble fraction (log2): -1.35

HMYIDLHEIWKSLTDEEQTVVKLLETEPAHVDTLIENSQIPASRILATLTLLEVRGIVKRLPGRMFSLAD
soluble fraction (log2): -0.571

HMYIENIGDYLKSHDIKPSYQRIKVFEYLMQHKNHPTVDMIYKSLVDEIPTLSKTTVYNTLNLFIEKQI
soluble fraction (log2): 0.0963

HMYITGAVIRKLREKNNITQLQLAERLRVSDKTISKWETGKGYPDITLLEPIAKTFSVSVTELISGDI
soluble fraction (log2): -0.84

HMYKNLRAFRESLGMTQKDFAASLSIGLSTYNGYEVGAREPKSDFWIAVARKYGVTIDYLMGFSDDPHK
soluble fraction (log2): 0.195

HMYKSSRASKSEVNKFLKFIIQSLDKRGFLQPGHKRQSMIRNIENIFYRTNLSDQEIRILLGIFSTLNK
soluble fraction (log2): -0.405

HMYLELVTKEGGSFDEPDYWGRRKLAYEIAGKTEGNYVVVKYTAEPATSDELDRVLNLNESVIRTKILRK
soluble fraction (log2): -0.461

HMYLHSEFSPVTGQELHMKYDDSSTEEDPVMLVEGKDIQGNDFVKKIHLNDVDPENATPAEMTALRVHL
soluble fraction (log2): -0.507

HMYLLPVTSTELKGNYPNPFNPETTISFDLKDAERVNLSIYNLKGQLVRTLVNSDLPIGRHRLIWDGNDS
soluble fraction (log2): -0.609

HMYLPGERMRIKITALGSNPKQGVGYLPDGMMVVVDEAATLVGRFVEIEFVKFLQTNSGRMMFAKVAT
soluble fraction (log2): -0.02

HMYMKGKVKWFDSKKGYGFITSENGKEIFVHFSGIAAKGFKSLNEGQTVEFEVANGAKGEQAVNVTV
soluble fraction (log2): 0.178

HMYMKTITEQFGERLKKIRTQKSLSQEQLSYLADIDRSYISDVERGARNISLENIYKLASALNIPPYLVLL
soluble fraction (log2): -0.344

HMYMLYQQLADSLRDKIYEGTYTFGDKIPSERTLAATFGISHLTVRKALAILEEEGLLDRRQGNGTFVRV
soluble fraction (log2): -0.693

HMYNIDSFMTKNYPTMERFTLSDVQKKYKTTFGLFVKQDELASMIEKTGRFNITSSKNVKYVNR
soluble fraction (log2): 0.313

HMYNPAYDAEIKVILELARHGYWEEARERADELLKAAPDDTGVKRIQTWVRQQEQRMREQAIEDSIRA
soluble fraction (log2): -0.206

HMYPEETVNKILDVSMQLFLEKGYEHTSIQDIVNHLGGLSKGAIYHHFKSKEDILDGVMNKLYQNN
soluble fraction (log2): -0.941

HMYPGQILEIYLDEIKRLYLNGLSSADIFAEIKEGSIPSVKKAIRSMKDGSAPVKITEAEESTRIAPS
soluble fraction (log2): -0.785

HMYPTPAAANRHFLDKWGHQEAYLGKVLNSRSRASEILNGKRPLSLSDLRTLRDNLGIPVDLLL
soluble fraction (log2): -0.421

HMYQKERDKEISEIETFLKKITNANGTRAYSDESIADMSYVELLNLYEGITSKLTEEEIENI
soluble fraction (log2): -0.644

HMYQPLYEQIKRMLTQSLIDGEWKAGEMIPSEMELAARFKVSQGTVRKAIDELVSENILMRRQGKGTFVH
soluble fraction (log2): 0.22

HMYSDDNKSILNLIDNLFNKENIKIDINAKKLLSNYLGVDRLVTKGEIEKAILFAGTKKHLSIEDISAFLS
soluble fraction (log2): -0.992

HMYSFPHQLLKLRTEKQLSQAELATRLFVSRQAVSKWENGDAEPSIDKLILLAKVFNVSLDRLILGT
soluble fraction (log2): 0.18

HMYSIDNPPDWLKNLPKGAIRIGVEVFNQVLSKADDEDRARMAAWSAIKAKYEKADDGQWQPKAA
soluble fraction (log2): 0.221

HMYSNDEIVNYLKNYIFDNFNLNELSDEELEEKIAELVQQQFAGQLLSLDEKVKLVNQVYSSIR
soluble fraction (log2): -0.139

HMYSRQRDLILKALRENVVHPTADFIYTVLKEKEPNLSLATVYRNLNLLANEGIIRKIEGLDGVAHFDH
soluble fraction (log2): 0.059

HMYSVVGKKGIVIEDINYSTGTGQIKSEGEVWSAKTNEQINIPKGTEIEIESIDGVKVIVKPL
soluble fraction (log2): 0.221

HMYTDGVPALTDLKKESKPGRRQYVGVEDIPKVLGGLGITILSTSKGLMSGHQAKKKNIGGELIASV
soluble fraction (log2): -0.0153

HMYTEIDDVKDLLSKIPSVNKLTTADRGMVQAARNAYDALDEDQKLYITIADVEKFNAAVEWMEEH
soluble fraction (log2): -0.523

HMYTVRDGDTVFGILNRFGVSLDELLSLNPELSNGLKAGMVLKIK
soluble fraction (log2): -1.13

HMYVADVVGMGIKDALYILENQGLRVVFTGKGVVKNQSIAVGEKIIKGEKIVLML
soluble fraction (log2): -0.723

HMYVQDPVDRLVLESALRLLREQEREIIFLHLVAGLKHREIAGLLHLPLSTVLSGYRRALTKMKSYLEE
soluble fraction (log2): 0.0239

HMYVTGETIRHLRTQRRMTQEQLAETLGVTGKAVSKWETGRGFPDMSLLEPLARALRISVPELLSGE
soluble fraction (log2): 0.0292

HMYYNQGILKSGASVYGEPGITSSHRLEIPSGSFVDIVQEKDEWVYYEKNHVNHGWVLRENIYIPSL
soluble fraction (log2): 0.23

HMYYQEDHDIILEETEDVTDPYLITLRGYIFLNNLQWVAARQAFLSADERFRHRHYSALIAPIMQTIDNAA
soluble fraction (log2): -1.49

HMYYSERILTILEERGISPYRVSKETGISQSVFSNWKRKPTSRITAANLERLADYLGLPVEVLTG
soluble fraction (log2): 0.134
